Substrate: O=C(O)Cc1ccc(O)c(O)c1
Assay: purified protein
Assay type: biochemical, Pseudomonas aeruginosa
Details: air-saturated (O2 ~260 μM), 50 mM sodium phosphate pH 7.5, 25 °C, Fe(II)/DTT-activated enzyme, stock kept with 0.5 mM ascorbic acid as preservative

B1: PaDHPAO (3,4-dihydroxyphenylacetate 2,3-dioxygenase) (Pseudomonas aeruginosa PAO1) (protein)
chain: MGKVALAAKITHVPSLYLSELPGPRHGCRQPAIDGHREIGRRCRELGVDTIVVFDTHWLVNAGYHINCAPHFEGLYTSNELPHFIANMEYGFPGNPELGRILAEGCNALGVETLAHDATTLGPEYGTLVPMRYMNQDRHFKVVSVSALCTVHYLNDSARLGWAMRKAVEEHYDGTVAFLASGSLSHRFAQNGQAPDFSDRIWSPFLEVLDHEVVQMWQEGRWAEFCGMLPEYASKGHGEGFMHDTAMLLGALGWSAYDGKAEVVTPYFGSSGTGQINAVFPVTAQDGSAIPAAQAGNPAGASCASRL
notes: N-terminus MGKVA from primer
Km: 58 ± 8 µM
kcat: 63.5 s⁻¹
kcat/Km: 1.1e+06 M⁻¹ s⁻¹
